# Reference: PMC10922792 (Journal of molecular biology, 2024)
# T1: hPASK PAS-A domain (residues 131–237) (human, UniProt Q96RG2 131-237, uniformly 15N-labeled)
# T1 sequence (looked up): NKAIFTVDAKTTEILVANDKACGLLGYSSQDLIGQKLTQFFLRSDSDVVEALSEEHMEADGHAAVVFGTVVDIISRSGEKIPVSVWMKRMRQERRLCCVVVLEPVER
# B1: PIM peptide (PASK AA 879–904) (peptide, UniProt Q96RG2 879-904, looked up)
# peptide: MRGAAGLQREIQEGAYSGSCYHRDGL
# Target: T1, hPASK PAS-A domain (residues 131–237)
# Assay: NMR titration
binder,measurement,value
B1,Kd,2400 µM
